From patent US20230181718A1

Target: Endo-H treated SApNPs
Assay: BLI, Octet RED96; Endo-H treated against wildtype SApNPs

## VRC01 (antibody)
  fold higher binding than the wildtype SApNPs: 2 to 3.5 fold
